This is an account of results in US20180126009A1 (SURGIMAB S A S, published 2018).

For assay [1], the target named is T1, carcinoembryonic antigen (UniProt P06731 35-685, limits assumed).
T1 construct: Antigen preparation used in the SPR assay; also called CEA
T1 sequence (looked up): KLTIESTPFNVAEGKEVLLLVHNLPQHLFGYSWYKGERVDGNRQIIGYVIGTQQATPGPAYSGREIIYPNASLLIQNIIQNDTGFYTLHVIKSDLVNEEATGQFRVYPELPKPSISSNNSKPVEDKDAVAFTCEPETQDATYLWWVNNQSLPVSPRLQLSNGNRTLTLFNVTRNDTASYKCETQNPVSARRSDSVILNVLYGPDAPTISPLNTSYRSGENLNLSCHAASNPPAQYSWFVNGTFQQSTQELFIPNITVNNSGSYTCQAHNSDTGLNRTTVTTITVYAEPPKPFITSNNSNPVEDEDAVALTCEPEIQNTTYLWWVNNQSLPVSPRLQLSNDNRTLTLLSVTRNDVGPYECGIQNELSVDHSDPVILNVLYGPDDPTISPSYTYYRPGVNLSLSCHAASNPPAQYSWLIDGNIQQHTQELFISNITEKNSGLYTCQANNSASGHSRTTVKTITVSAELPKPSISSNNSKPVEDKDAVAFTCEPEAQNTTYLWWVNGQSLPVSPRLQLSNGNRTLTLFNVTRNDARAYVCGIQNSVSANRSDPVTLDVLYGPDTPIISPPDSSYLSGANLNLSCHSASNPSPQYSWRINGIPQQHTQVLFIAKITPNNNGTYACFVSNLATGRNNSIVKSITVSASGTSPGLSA
Put plainly: SPR, BIACORE 3000, CEA thiol-coupled to CM5 chip, antibody in flow at 50 nM to 1.5 nM; chimeric antibody of Example 1, unlabelled. As to the method:
(§1) The affinity of the fluorescent conjugate as prepared in Example 3 to the target carcinoembryonic antigen was also determined, using surface plasmon resonance (SPR) on a BIACORE 3000 device. Carcinoembryonic antigen was coupled to a CM5 chip via the thiol groups (Surface Thiol Coupling GE healthcare; Instruction 22-0618-10AB). Association and dissociation rates were measured using in the flow 6 different concentrations (from 50 nM to 1.5 nM) of the chimeric monoclonal antibody of Example 1, the monoclonal antibody m511 (the original murine antibody from which the variable regions the chimeric monoclonal antibody of Ex. 1 is based) and fluorescent conjugate. Data acquisition and parameters calculations were performed using the Bia software and Bia evaluation programs.

For assay [2], the target named is T1, carcinoembryonic antigen. Put plainly: SPR, BIACORE 3000, CEA thiol-coupled to CM5 chip, antibody in flow at 50 nM to 1.5 nM; parental murine antibody m511. The protocol:
as §1
On the technique in general: Surface plasmon resonance follows binding to a sensor surface in real time, without labels.

The target of assay [3] is T1, carcinoembryonic antigen. Put plainly: SPR, BIACORE 3000, CEA thiol-coupled to CM5 chip, conjugate in flow at 50 nM to 1.5 nM; chimeric antibody labelled with the near-infrared dye (conjugate of Ex. 3). The protocol:
as §1

B1: anti-CEA chimeric monoclonal antibody of Example 1 (antibody, human IgG1, V domains shown)
VH: DVQLVESGGGLVQPGGSRKLSCAASGFTFSNFGMHWIRQAPEKGLEWVAYISGGSSTIYFADTLKGRFTISRDNPKNTLFLQMTSLRSEDTAIYYCARDYYINNYWYFDVWGAGTTVTVSS
VL: DIVMTQSQKFMSTSVGDRVSITCKASQNVRSAVAWYQQTPGQSPKALIYLASNRYTGVPDRFTGSGSGTDFTLTISNVQSEDLADYFCLQHWNYPLTFGGGTKLELK
notes: Expressed in CHO cells; 148.6 kDa by MALDI-TOF; also called chimeric mAb directed against CEA; anti-CEA chimeric mAb
For B1, in the assay with carcinoembryonic antigen [1], binding was characterised by a dissociation constant (Kd) of 0.0327 nM.

B2: monoclonal antibody m511 (antibody, V domains shown)
VH: B1 VH
VL: B1 VL
notes: Murine parental antibody; also called parental murine 511 antibody; original murine antibody
Consider B2, for which the Kd (usually the free concentration of one partner at which half of the binding sites on the other are occupied at equilibrium, for simple one-to-one binding) with carcinoembryonic antigen [2] worked out at 0.0382 nM.

B3: fluorescent conjugate of Example 3 (anti-CEA chimeric mAb of Example 1 coupled to the fluorochrome of Formula (IV)) (antibody, V domains shown)
VH: B1 VH
VL: B1 VL
modifications: cyanine fluorochrome (NHS ester of Formula (IV), giving moiety F of formula (II)) coupled to the antibody; average fluorochrome/antibody molar ratio 1.5-1.6; sites of coupling not stated
notes: In the tissue cross-reactivity study the conjugate was also biotin labelled; also called conjugate of Ex. 3
The molecule B3 yielded a Kd with carcinoembryonic antigen [3] of 0.0321 nM.
